Data as given in patent US10709762B2, “Use of M-CSF for preventing or treating myeloid cytopenia and related complications” (priority 2013, dated 2020).

How the values were obtained:
[1] = tested on: PU.1 expression in sorted HSC; assay: Quantitative RT-PCR of PU.1 expression in sorted HSC in culture; type: cell-based, mice; conditions: 16 h in culture with cytokine, 100 ng/ml
Description: CD150+CD34− KSLF HSC or CD150+CD34− CD48− KSLF HSC (single cells) were sorted into S-clone SF-03 medium (Sanko Jyunyaku) with 10% FBS supplemented with 100 U/ml penicillin and […] streptomycin (both Invitrogen) and cultivated in uncoated U-Shape 96 well plates (Greiner) in 100 μl SCM, 20 ng/ml rSCF, 50 ng/ml rTPO+/−100 ng/ml rM-CSF or 100 ng/ml rGM-CSF or 100 ng/ml rG-CSF. All cytokines were murine and from PeproTech. Cell viability was analyzed by AnnexinV and Propidium iodide FACS staining^35.
Total RNA was isolated and reverse transcribed with μMACS™ ONE-STEP T7 template kit (Miltenyi Biotec) and analysed by quantitative real-time PCR using TAQMAN® Universal PCR Master Mix and a 7500 Fast Real Time PCR System sequence detection system (both Applied Biosystem), following the manufacturers' instructions.

[2] = tested on: Pseudomonas aeruginosa; assay: Survival after Pseudomonas aeruginosa infection following HS/PC transplantation; type: in vivo, mice; conditions: P. aeruginosa infection on Day8 after irradiation and HS/PC transplantation; three injections of 10 μg M-CSF
Description: (§1) To study the functional impact of MCSF mediated HSC commitment during infections, two separate series of experiments were performed. In all experiments, after lethal irradiation of recipients, 2500 HS/PC with 200,000 cKit-carrier cells from donors were grafted.
(§2) Uninfected mice that received HS/PC transplants served as controls for efficient life saving transplantation (black line; FIGS. 8A, 8B and FIGS. 10A, 10B; n=8). Two other groups of mice received either 3 injections of MCSF (rhMCSF or Bacculo virus produced mMCSF) or PBS on the day of HS/PC transplantation.
(§3) One-week post transplantation these mice were challenged with lethal doses of either the bacteria Pseudomonas aeruginosa or the opportunistic fungus Aspergillus fumigatus.
CD45.1 and C57Bl/6 mice were obtained from Charles River. 10-14 weeks old sex-matched CD45.2 recipients were reconstituted as described^3 with bone marrow derived KSL (c-Kit(CD117)+, Sca+, Lin−) HS/PC isolated from 6-8 weeks old CD45.1. For in vivo injections the indicated concentrations of M-CSF and/or sorted cells were injected in 100-200 μl of PBS into the retro-orbital sinus. For HS/PC transplantation 2500 KLS HS/PC were sorted from CD45.1 mice and mixed with 200,000 cKit− CD45.2 or cKit−, Terr119+ carrier cells prior to injection into lethally irradiated (160 kV, 25 mA, 6.31 Gy) CD45.2 recipient mice. […]

[3] = tested on: Pseudomonas aeruginosa; assay: Bacterial tissue load quantification; type: in vivo, mice; conditions: 18 h after infection
Description: The infected mice were killed; the organs (spleen, lungs, liver and heart) were harvested and weighed. To determine CFUs per gram of tissue serial dilutions of tissue homogenates were prepared in PBS and plated on Pseudomonas Isolation Agar (PIA) (Difco laboratories) supplemented with appropriate antibiotics and incubated overnight at 37° C. The colonies were counted after 16-24 h.
For analysis of bacterial load, mice were killed at 18 h after infection, tissue homogenates were prepared from spleen, lungs, liver and heart, and were plated to determine CFU.

[4] = tested on: Aspergillus fumigatus; assay: Survival after Aspergillus fumigatus infection following HS/PC transplantation; type: in vivo, mice; conditions: A. fumigatus infection on D8 after irradiation and HS/PC transplantation; three injections of 10 μg M-CSF
Description: as §1, §2, §3
Each mouse received three injections of 10 μg M-CSF: 1 h before HS/PC transplantation; 6 h and 18 h post-transplantation. Human M-CSF (rhMCSF, Chiron Corporation Inc., USA, now part of Novartis AG) and Mouse M-CSF was expressed in baculovirus (Bac. virus mMCSF^56) were used for the study.
Aspergillus fumigatus FGSC 1100 was provided by the Centre International de Ressources Microbiennes—Champignons Filamenteux (CIRM-CF, Marseille, France). For each experiment, cultures were grown on Malt agar medium (2% malt extract, 2% Bacto-agar DIFCO) for 5 days at 25° C. Conidial suspension was prepared in sterile saline according to Bitmansour et al. (2002)^55. […]

[5] = tested on: Aspergillus fumigatus; assay: Fungal culture of infected organs; type: in vivo; conditions: lungs, liver and heart; 48 h after infection; versus untreated mice
Description: The organs (lungs, liver, heart and spleen) were harvested, weighed and tissue homogenates were prepared in PBS. The homogenates were serially diluted and 200 μL or each dilution was plated on Sabouraud dextrose agar (DIFCO). The plates were incubated at 25° C. and pictures were taken after 3-5 days.
Furthermore in the mice succumbing to infection death was slightly delayed from D9-D14 in untreated mice to D10-D15 in the rhMCSF treated group. For analysis of fungal load, mice were killed at 48 h after infection and tissue homogenates were prepared from lungs, liver and heart. […] Fungal tissue cultures were incubated beyond 96 h to verify the typical colony morphology of A. fumigatus.

B1: GM-CSF: murine granulocyte-macrophage colony-stimulating factor from PeproTech (protein, UniProt P01587 18-141, looked up)
Granulocyte-macrophage …: APTRSPITVTRPWKHVEAIKEALNLLDDMPVTLNEEVEVVSNEFSFKKLTCVQTRLKIFEQGLRGNFTKLKGALNMTASYYQTYCPPTPETDCETQVTTYADFIDSLKTFLTDIPFECKKPGQK
For B1, the “PU.1 expression in FACS purified HSC” value [1] was “not”.

B2: rhMCSF: Human M-CSF (rhMCSF, Chiron Corporation Inc., USA, now part of Novartis AG) (protein, UniProt P09603 33-554, looked up)
Macrophage colony-stimulating …: EEVSEYCSHMIGSGHLQSLQRLIDSQMETSCQITFEFVDQEQLKDPVCYLKKAFLLVQDIMEDTMRFRDNTPNAIAIVQLQELSLRLKSCFTKDYEEHDKACVRTFYETPLQLLEKVKNVFNETKNLLDKDWNIFSKNCNNSFAECSSQDVVTKPDCNCLYPKAIPSSDPASVSPHQPLAPSMAPVAGLTWEDSEGTEGSSLLPGEQPLHTVDPGSAKQRPPRSTCQSFEPPETPVVKDSTIGGSPQPRPSVGAFNPGMEDILDSAMGTNWVPEEASGEASEIPVPQGTELSPSRPGGGSMQTEPARPSNFLSASSPLPASAKGQQPADVTGTALPRVGPVRPTGQDWNHTPQKTDHPSALLRDPPEPGSPRISSLRPQGLSNPSTLSAQPQLSRSHSSGSVLPLGELEGRRSTRDRRSPAEPEGGPASEGAARPLPRFNSVPLTDTGHERQSEGSFSPQLQESVFHLLVPSVILVLLAVGGLLFYRWRRRSHQEPQRADSPLEQPEGSPLTQDDRQVELPV
For B2, the survival [2] was 50%, the moribund mice [3] was “two to three of the 10 mice” and the “tissue load of bacteria” value ([3]; spleen, lungs, liver and heart, versus untreated mice) was “significant decrease”. The survival [4] was 40% and the “tissue load of fungal colonies” value [5] was “significant decrease”.

B3: G-CSF: murine granulocyte colony-stimulating factor from PeproTech (protein, UniProt P09920 31-208, looked up)
Granulocyte …: VPLVTVSALPPSLPLPRSFLLKSLEQVRKIQASGSVLLEQLCATYKLCHPEELVLLGHSLGIPKASLSGCSSQALQQTQCLSQLHSGLCLYQGLLQALSGISPALAPTLDLLQLDVANFATTIWQQMENLGVAPTVQPTQSAMPAFTSAFQRRAGGVLAISYLQGFLETARLALHHLA
For B3, the “PU.1 expression in FACS purified HSC” value [1] was “not”.

B4: mouse MCSF: Mouse M-CSF expressed in baculovirus (protein, UniProt P07141 33-552, looked up)
Macrophage colony-stimulating …: KEVSEHCSHMIGNGHLKVLQQLIDSQMETSCQIAFEFVDQEQLDDPVCYLKKAFFLVQDIIDETMRFKDNTPNANATERLQELSNNLNSCFTKDYEEQNKACVRTFHETPLQLLEKIKNFFNETKNLLEKDWNIFTKNCNNSFAKCSSRDVVTKPDCNCLYPKATPSSDPASASPHQPPAPSMAPLAGLAWDDSQRTEGSSLLPSELPLRIEDPGSAKQRPPRSTCQTLESTEQPNHGDRLTEDSQPHPSAGGPVPGVEDILESSLGTNWVLEEASGEASEGFLTQEAKFSPSTPVGGSIQAETDRPRALSASPFPKSTEDQKPVDITDRPLTEVNPMRPIGQTQNNTPEKTDGTSTLREDHQEPGSPHIATPNPQRVSNSATPVAQLLLPKSHSWGIVLPLGELEGKRSTRDRRSPAELEGGSASEGAARPVARFNSIPLTDTGHVEQHEGSSDPQIPESVFHLLVPGIILVLLTVGGLLFYKWKWRSHRDPQTLDSSVGRPEDSSLTQDEDRQVELPV
Molecule B4 has a survival [2] of 87.5% and a survival [4] of 60%.
